{
  "source": "the Immune Epitope Database (IEDB)",
  "key": {"[1]": {"biological_target": "HLA-B*48:01", "experiment": "IEDB peptide-MHC binding, purified MHC/competitive/fluorescence; filed as Kd, often an IC50 or EC50 that approximates it; ≥ and ≤ were set here for values at or beyond the usual limits of such assays"}, "[2]": {"biological_target": "HLA-A*01:01", "experiment": "IEDB peptide-MHC binding, purified MHC/direct/fluorescence; filed as Kd, often an IC50 or EC50 that approximates it; ≥ and ≤ were set here for values at or beyond the usual limits of such assays", "conditions": "source organism: Influenza A virus (A/duck/Vietnam/15/2003(H5N1))"}, "[3]": {"biological_target": "HLA-A*02:01", "experiment": "IEDB peptide-MHC binding, purified MHC/direct/fluorescence; filed as Kd, often an IC50 or EC50 that approximates it; ≥ and ≤ were set here for values at or beyond the usual limits of such assays"}, "[4]": {"biological_target": "HLA-A*03:01", "experiment": "IEDB peptide-MHC binding, purified MHC/direct/fluorescence; filed as Kd, often an IC50 or EC50 that approximates it; ≥ and ≤ were set here for values at or beyond the usual limits of such assays"}, "[5]": {"biological_target": "HLA-A*26:01", "experiment": "IEDB peptide-MHC binding, purified MHC/direct/fluorescence; filed as Kd, often an IC50 or EC50 that approximates it; ≥ and ≤ were set here for values at or beyond the usual limits of such assays"}, "[6]": {"biological_target": "HLA-A*68:02", "experiment": "IEDB peptide-MHC binding, purified MHC/direct/fluorescence; filed as Kd, often an IC50 or EC50 that approximates it; ≥ and ≤ were set here for values at or beyond the usual limits of such assays"}, "[7]": {"biological_target": "HLA-A*69:01", "experiment": "IEDB peptide-MHC binding, purified MHC/direct/fluorescence; filed as Kd, often an IC50 or EC50 that approximates it; ≥ and ≤ were set here for values at or beyond the usual limits of such assays"}, "[8]": {"biological_target": "HLA-B*07:02", "experiment": "IEDB peptide-MHC binding, purified MHC/direct/fluorescence; filed as Kd, often an IC50 or EC50 that approximates it; ≥ and ≤ were set here for values at or beyond the usual limits of such assays", "conditions": "source organism: Influenza A virus (A/duck/Vietnam/15/2003(H5N1))"}, "[9]": {"biological_target": "HLA-B*08:03", "experiment": "IEDB peptide-MHC binding, purified MHC/direct/fluorescence; filed as Kd, often an IC50 or EC50 that approximates it; ≥ and ≤ were set here for values at or beyond the usual limits of such assays", "conditions": "source organism: Influenza A virus(A/swine/Shandong/fZC/2003(H9N2))"}, "[10]": {"biological_target": "HLA-B*15:01", "experiment": "IEDB peptide-MHC binding, purified MHC/direct/fluorescence; filed as Kd, often an IC50 or EC50 that approximates it; ≥ and ≤ were set here for values at or beyond the usual limits of such assays"}, "[11]": {"biological_target": "HLA-B*15:17", "experiment": "IEDB peptide-MHC binding, purified MHC/direct/fluorescence; filed as Kd, often an IC50 or EC50 that approximates it; ≥ and ≤ were set here for values at or beyond the usual limits of such assays"}, "[12]": {"biological_target": "HLA-B*18:01", "experiment": "IEDB peptide-MHC binding, purified MHC/direct/fluorescence; filed as Kd, often an IC50 or EC50 that approximates it; ≥ and ≤ were set here for values at or beyond the usual limits of such assays"}, "[13]": {"biological_target": "HLA-B*27:05", "experiment": "IEDB peptide-MHC binding, purified MHC/direct/fluorescence; filed as Kd, often an IC50 or EC50 that approximates it; ≥ and ≤ were set here for values at or beyond the usual limits of such assays", "conditions": "source organism: Influenza A virus (A/duck/Vietnam/15/2003(H5N1))"}, "[14]": {"biological_target": "HLA-B*39:01", "experiment": "IEDB peptide-MHC binding, purified MHC/direct/fluorescence; filed as Kd, often an IC50 or EC50 that approximates it; ≥ and ≤ were set here for values at or beyond the usual limits of such assays"}, "[15]": {"biological_target": "HLA-B*40:01", "experiment": "IEDB peptide-MHC binding, purified MHC/direct/fluorescence; filed as Kd, often an IC50 or EC50 that approximates it; ≥ and ≤ were set here for values at or beyond the usual limits of such assays", "conditions": "source organism: Influenza A virus (A/duck/Vietnam/15/2003(H5N1))"}, "[16]": {"biological_target": "HLA-B*46:01", "experiment": "IEDB peptide-MHC binding, purified MHC/direct/fluorescence; filed as Kd, often an IC50 or EC50 that approximates it; ≥ and ≤ were set here for values at or beyond the usual limits of such assays"}, "[17]": {"biological_target": "HLA-B*57:01", "experiment": "IEDB peptide-MHC binding, purified MHC/direct/fluorescence; filed as Kd, often an IC50 or EC50 that approximates it; ≥ and ≤ were set here for values at or beyond the usual limits of such assays"}, "[18]": {"biological_target": "HLA-B*58:01", "experiment": "IEDB peptide-MHC binding, purified MHC/direct/fluorescence; filed as Kd, often an IC50 or EC50 that approximates it; ≥ and ≤ were set here for values at or beyond the usual limits of such assays", "conditions": "source organism: Influenza A virus (A/duck/Vietnam/15/2003(H5N1))"}, "[19]": {"biological_target": "HLA-A*30:01", "experiment": "IEDB peptide-MHC binding, purified MHC/competitive/fluorescence; filed as Kd, often an IC50 or EC50 that approximates it; ≥ and ≤ were set here for values at or beyond the usual limits of such assays", "conditions": "source organism: Influenza A virus (A/X-31(H3N2))"}, "[20]": {"biological_target": "HLA-A*02:03", "experiment": "IEDB peptide-MHC binding, purified MHC/direct/fluorescence; filed as Kd, often an IC50 or EC50 that approximates it; ≥ and ≤ were set here for values at or beyond the usual limits of such assays"}, "[21]": {"biological_target": "HLA-A*02:11", "experiment": "IEDB peptide-MHC binding, purified MHC/direct/fluorescence; filed as Kd, often an IC50 or EC50 that approximates it; ≥ and ≤ were set here for values at or beyond the usual limits of such assays", "conditions": "source organism: Burkholderia mallei ATCC 23344"}, "[22]": {"biological_target": "HLA-A*02:12", "experiment": "IEDB peptide-MHC binding, purified MHC/direct/fluorescence; filed as Kd, often an IC50 or EC50 that approximates it; ≥ and ≤ were set here for values at or beyond the usual limits of such assays"}, "[23]": {"biological_target": "HLA-A*02:16", "experiment": "IEDB peptide-MHC binding, purified MHC/direct/fluorescence; filed as Kd, often an IC50 or EC50 that approximates it; ≥ and ≤ were set here for values at or beyond the usual limits of such assays"}, "[24]": {"biological_target": "HLA-A*02:19", "experiment": "IEDB peptide-MHC binding, purified MHC/direct/fluorescence; filed as Kd, often an IC50 or EC50 that approximates it; ≥ and ≤ were set here for values at or beyond the usual limits of such assays"}, "[25]": {"biological_target": "HLA-A*24:03", "experiment": "IEDB peptide-MHC binding, purified MHC/direct/fluorescence; filed as Kd, often an IC50 or EC50 that approximates it; ≥ and ≤ were set here for values at or beyond the usual limits of such assays", "conditions": "source organism: Burkholderia mallei ATCC 23344"}, "[26]": {"biological_target": "HLA-B*27:03", "experiment": "IEDB peptide-MHC binding, purified MHC/direct/fluorescence; filed as Kd, often an IC50 or EC50 that approximates it; ≥ and ≤ were set here for values at or beyond the usual limits of such assays"}, "[27]": {"biological_target": "HLA-B*51:01", "experiment": "IEDB peptide-MHC binding, purified MHC/direct/fluorescence; filed as Kd, often an IC50 or EC50 that approximates it; ≥ and ≤ were set here for values at or beyond the usual limits of such assays", "conditions": "source organism: Vibrio vulnificus YJ016"}, "[28]": {"conditions": "source organism: Influenza A virus (A/duck/Vietnam/15/2003(H5N1))"}, "[29]": {"conditions": "source organism: Burkholderia mallei ATCC 23344"}, "[30]": {"conditions": "source organism: Vibrio vulnificus YJ016"}},
  "data": [
    {"sequence": "RQVWWKALL", "values": [
      {"measurement": "Kd", "setting": "[1]; source organism: Vibrio cholerae MAK 757", "value": 0.0226, "unit": "µM"}
    ]},
    {"sequence": "SHEGEGIPL", "values": [
      {"measurement": "Kd", "setting": "[2]", "value": "≥ 20", "unit": "µM"},
      {"measurement": "Kd", "setting": "[3]; [28]", "value": "≥ 20", "unit": "µM"},
      {"measurement": "Kd", "setting": "[4]; [28]", "value": "≥ 20", "unit": "µM"},
      {"measurement": "Kd", "setting": "[5]; source organism: Influenza A virus(A/swine/Shandong/fZC/2003(H9N2))", "value": "≥ 20", "unit": "µM"},
      {"measurement": "Kd", "setting": "[6]; [28]", "value": "≥ 20", "unit": "µM"},
      {"measurement": "Kd", "setting": "[7]; [28]", "value": "≥ 20", "unit": "µM"},
      {"measurement": "Kd", "setting": "[8]", "value": "≥ 20", "unit": "µM"},
      {"measurement": "Kd", "setting": "[9]", "value": "≥ 20", "unit": "µM"},
      {"measurement": "Kd", "setting": "[10]; [28]", "value": "≥ 20", "unit": "µM"},
      {"measurement": "Kd", "setting": "[11]; [28]", "value": "≥ 20", "unit": "µM"},
      {"measurement": "Kd", "setting": "[12]; [28]", "value": "≥ 20", "unit": "µM"},
      {"measurement": "Kd", "setting": "[13]", "value": "≥ 20", "unit": "µM"},
      {"measurement": "Kd", "setting": "[14]; [28]", "value": 0.0995, "unit": "µM"},
      {"measurement": "Kd", "setting": "[15]", "value": "≥ 20", "unit": "µM"},
      {"measurement": "Kd", "setting": "[16]; [28]", "value": "≥ 20", "unit": "µM"},
      {"measurement": "Kd", "setting": "[17]; [28]", "value": "≥ 20", "unit": "µM"},
      {"measurement": "Kd", "setting": "[18]", "value": "≥ 20", "unit": "µM"},
      {"measurement": "Kd", "setting": "[19]", "value": "≥ 20", "unit": "µM"},
      {"measurement": "Kd", "setting": "[1]; source organism: Influenza A virus (A/X-31(H3N2))", "value": "≥ 20", "unit": "µM"}
    ]},
    {"sequence": "LVTGAGSGF", "values": [
      {"measurement": "Kd", "setting": "[3]; [29]", "value": "≥ 20", "unit": "µM"},
      {"measurement": "Kd", "setting": "[20]; [29]", "value": "≥ 20", "unit": "µM"},
      {"measurement": "Kd", "setting": "[21]", "value": "≥ 20", "unit": "µM"},
      {"measurement": "Kd", "setting": "[22]; [29]", "value": "≥ 20", "unit": "µM"},
      {"measurement": "Kd", "setting": "[23]; [29]", "value": "≥ 20", "unit": "µM"},
      {"measurement": "Kd", "setting": "[24]; [29]", "value": "≥ 20", "unit": "µM"},
      {"measurement": "Kd", "setting": "[4]; [29]", "value": "≥ 20", "unit": "µM"},
      {"measurement": "Kd", "setting": "[25]", "value": "≥ 20", "unit": "µM"},
      {"measurement": "Kd", "setting": "[5]; [29]", "value": "≥ 20", "unit": "µM"},
      {"measurement": "Kd", "setting": "[6]; [29]", "value": "≥ 20", "unit": "µM"},
      {"measurement": "Kd", "setting": "[7]; [29]", "value": "≥ 20", "unit": "µM"},
      {"measurement": "Kd", "setting": "[11]; [29]", "value": 0.148, "unit": "µM"},
      {"measurement": "Kd", "setting": "[12]; [29]", "value": "≥ 20", "unit": "µM"},
      {"measurement": "Kd", "setting": "[26]; [29]", "value": "≥ 20", "unit": "µM"},
      {"measurement": "Kd", "setting": "[14]; [29]", "value": "≥ 20", "unit": "µM"},
      {"measurement": "Kd", "setting": "[16]; [29]", "value": "≥ 20", "unit": "µM"},
      {"measurement": "Kd", "setting": "[17]; [29]", "value": "≥ 20", "unit": "µM"}
    ]},
    {"sequence": "FPLWNTEKI", "values": [
      {"measurement": "Kd", "setting": "[3]; [30]", "value": "≥ 20", "unit": "µM"},
      {"measurement": "Kd", "setting": "[20]; [30]", "value": "≥ 20", "unit": "µM"},
      {"measurement": "Kd", "setting": "[22]; [30]", "value": "≥ 20", "unit": "µM"},
      {"measurement": "Kd", "setting": "[23]; [30]", "value": "≥ 20", "unit": "µM"},
      {"measurement": "Kd", "setting": "[24]; [30]", "value": "≥ 20", "unit": "µM"},
      {"measurement": "Kd", "setting": "[4]; [30]", "value": "≥ 20", "unit": "µM"},
      {"measurement": "Kd", "setting": "[5]; [30]", "value": "≥ 20", "unit": "µM"},
      {"measurement": "Kd", "setting": "[10]; [30]", "value": "≥ 20", "unit": "µM"},
      {"measurement": "Kd", "setting": "[12]; [30]", "value": "≥ 20", "unit": "µM"},
      {"measurement": "Kd", "setting": "[26]; [30]", "value": "≥ 20", "unit": "µM"},
      {"measurement": "Kd", "setting": "[16]; [30]", "value": "≥ 20", "unit": "µM"},
      {"measurement": "Kd", "setting": "[27]", "value": 0.071, "unit": "µM"},
      {"measurement": "Kd", "setting": "[17]; [30]", "value": "≥ 20", "unit": "µM"}
    ]}
  ]
}
